Measurements as given in the RNAGym collection of RNA variant scans (doi:10.1093/molbev/msab373).

B1: Azoarcus group I ribozyme (parent)
chain: GUGCCUUGCGCCGGGAAACCACGCAAGGGAUGGUGUCAAAUUCGGCGAAACCUAAGCGCCCGCCCGGGCGUAUGGCAACGCCGAGCCAAGCUUCGGCGCCUGCGCCGAUGAAGGUGUAGAGACUAGACGGCACCCACCUAAGGCAAACGCUAUGGUGAAGGCAUAGUCCAGGGAGUGGCGAAAGUCACACAAACCGG

Variants of: B1
Experiment: reverse-splicing fitness (ratio to wild type); higher = more active; in vitro selection; Mg2+ level not given
Method in brief: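 An in vitro group I ribozyme library with randomized positions was T7-transcribed and gel-purified. In triplicate, 10 pmol RNA in EPPS pH 7.5 was reacted with 50 pmoles of a 30-nt RNA substrate for 1 h at 37 °C across several added MgCl2 levels (1–48 mM), then stopped with EDTA. Products were reverse transcribed from a substrate-complementary primer, PCR-amplified and sequenced (HiSeq 4000). Fitness is a variant's read proportion after selection over that before, normalised to wild type.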

In order of rising reverse-splicing fitness:
1. GUGCCUUGCGCCGGGAAACCACGCAAGGGAUGGUGUCAAAUUCGGCGAAACCUAAGCGCCCGCCCGGGCGUAUGGCAACGCGGAGCCAAGCUUCGGCGCCUGCGCCGAUGUAGGUGUAGUGACUAGACGGCACCCACCUAAGGCGAACGAUAUGGUGAAGGCAUAGUCGAGGGAGGGGCGAAAGUCACACAAACCGG  0.00257
2. GUGCCUUGCGCCGGGAAACCACGCAAGGGAUGGUGUCAAAUUCGGCGAAACCUAAGCGCCCGCCCGGGCGUAUGGCAACGCGGAGCCAAGCUUCGGCGCCUGCGCCGAUGUAGGUGUAGUGACUAGACGGCACCCACCUAAGGCGAACGAUAUGGUGAAGGCAUAGUCUAGGGAGGGGCGAAAGUCACACAAACCGG  0.00285
3. GUGCCUUGCGCCGGGAAACCACGCAAGGGAUGGUGUCAAAUUCGGCGAAACCUAAGCGCCCGCCCGGGCGUAUGGCAACGCGGAGCCAAGCUUCGGCGCCUGCGCCGAUGUAGGUGUAGUGACUAGACGGCACCCACCUAAGGCGAACGAUAUGGUGAAGGCAUAGUCAAGGGAGGGGCGAAAGUCACACAAACCGG  0.00334
4. GUGCCUUGCGCCGGGAAACCACGCAAGGGAUGGUGUCAAAUUCGGCGAAACCUAAGCGCCCGCCCGGGCGUAUGGCAACGCGGAGCCAAGCUUCGGCGCCUGCGCCGAUGUAGGUGUAGUGACUAGACGGCACCCACCUAAGGCGAACGAUAUGGUGAAGGCAUAGUCCAGGGAGGGGCGAAAGUCACACAAACCGG  0.00383
5. GUGCCUUGCGCCGGGAAACCACGCAAGGGAUGGUGUCAAAUUCGGCGAAACCUAAGCGCCCGCCCGGGCGUAUGGCAACGCGGAGCCAAGCUUCGGCGCCUGCGCCGAUGUAGGUGUAGUGACUAGACGGCACCCACCUAAGGCGAACGAUAUGGUGAAGGCAUAGUCUAGGGAGAGGCGAAAGUCACACAAACCGG  0.00402
6. GUGCCUUGCGCCGGGAAACCACGCAAGGGAUGGUGUCAAAUUCGGCGAAACCUAAGCGCCCGCCCGGGCGUAUGGCAACGCGGAGCCAAGCUUCGGCGCCUGCGCCGAUGUAGGUGUAGUGACUAGACGGCACCCACCUAAGGCCAACGCUAUGGUGAAGGCAUAGUCCAGGGAGGGGCGAAAGUCACACAAACCGG  0.00404
7. GUGCCUUGCGCCGGGAAACCACGCAAGGGAUGGUGUCAAAUUCGGCGAAACCUAAGCGCCCGCCCGGGCGUAUGGCAACGCGGAGCCAAGCUUCGGCGCCUGCGCCGAUGUAGGUGUAGUGACUAGACGGCACCCACCUAAGGCGAACGGUAUGGUGAAGGCAUAGUCGAGGGAGGGGCGAAAGUCACACAAACCGG  0.00407
8. GUGCCUUGCGCCGGGAAACCACGCAAGGGAUGGUGUCAAAUUCGGCGAAACCUAAGCGCCCGCCCGGGCGUAUGGCAACGCGGAGCCAAGCUUCGGCGCCUGCGCCGAUGUAGGUGUAGUGACUAGACGGCACCCACCUAAGGCGAACGAUAUGGUGAAGGCAUAGUCAAGGGAGCGGCGAAAGUCACACAAACCGG  0.00438
9. GUGCCUUGCGCCGGGAAACCACGCAAGGGAUGGUGUCAAAUUCGGCGAAACCUAAGCGCCCGCCCGGGCGUAUGGCAACGCGGAGCCAAGCUUCGGCGCCUGCGCCGAUGUAGGUGUAGUGACUAGACGGCACCCACCUAAGGCGAACGAUAUGGUGAAGGCAUAGUCUAGGGAGUGGCGAAAGUCACACAAACCGG  0.00464
10. GUGCCUUGCGCCGGGAAACCACGCAAGGGAUGGUGUCAAAUUCGGCGAAACCUAAGCGCCCGCCCGGGCGUAUGGCAACGCGGAGCCAAGCUUCGGCGCCUGCGCCGAUGUAGGUGUAGUGACUAGACGGCACCCACCUAAGGCGAACGGUAUGGUGAAGGCAUAGUCAAGGGAGGGGCGAAAGUCACACAAACCGG  0.00502
11. GUGCCUUGCGCCGGGAAACCACGCAAGGGAUGGUGUCAAAUUCGGCGAAACCUAAGCGCCCGCCCGGGCGUAUGGCAACGCGGAGCCAAGCUUCGGCGCCUGCGCCGAUGUAGGUGUAGUGACUAGACGGCACCCACCUAAGGCGAACGAUAUGGUGAAGGCAUAGUCUAGGGAGCGGCGAAAGUCACACAAACCGG  0.00514
12. GUGCCUUGCGCCGGGAAACCACGCAAGGGAUGGUGUCAAAUUCGGCGAAACCUAAGCGCCCGCCCGGGCGUAUGGCAACGCGGAGCCAAGCUUCGGCGCCUGCGCCGAUGUAGGUGUAGUGACUAGACGGCACCCACCUAAGGCGAACGAUAUGGUGAAGGCAUAGUCGAGGGAGUGGCGAAAGUCACACAAACCGG  0.00555
13. GUGCCUUGCGCCGGGAAACCACGCAAGGGAUGGUGUCAAAUUCGGCGAAACCUAAGCGCCCGCCCGGGCGUAUGGCAACGCGGAGCCAAGCUUCGGCGCCUGCGCCGAUGUAGGUGUAGUGACUAGACGGCACCCACCUAAGGCGAACGAUAUGGUGAAGGCAUAGUCGAGGGAGCGGCGAAAGUCACACAAACCGG  0.00577
14. GUGCCUUGCGCCGGGAAACCACGCAAGGGAUGGUGUCAAAUUCGGCGAAACCUAAGCGCCCGCCCGGGCGUAUGGCAACGCGGAGCCAAGCUUCGGCGCCUGCGCCGAUGUAGGUGUAGUGACUAGACGGCACCCACCUAAGGCGAACGGUAUGGUGAAGGCAUAGUCGAGGGAGCGGCGAAAGUCACACAAACCGG  0.00596
15. GUGCCUUGCGCCGGGAAACCACGCAAGGGAUGGUGUCAAAUUCGGCGAAACCUAAGCGCCCGCCCGGGCGUAUGGCAACGCGGAGCCAAGCUUCGGCGCCUGCGCCGAUGUAGGUGUAGUGACUAGACGGCACCCACCUAAGGCGAACGAUAUGGUGAAGGCAUAGUCAAGGGAGUGGCGAAAGUCACACAAACCGG  0.00617
16. GUGCCUUGCGCCGGGAAACCACGCAAGGGAUGGUGUCAAAUUCGGCGAAACCUAAGCGCCCGCCCGGGCGUAUGGCAACGCGGAGCCAAGCUUCGGCGCCUGCGCCGAUGUAGGUGUAGUGACUAGACGGCACCCACCUAAGGCGAACGGUAUGGUGAAGGCAUAGUCGAGGGAGUGGCGAAAGUCACACAAACCGG  0.00714
17. GUGCCUUGCGCCGGGAAACCACGCAAGGGAUGGUGUCAAAUUCGGCGAAACCUAAGCGCCCGCCCGGGCGUAUGGCAACGCGGAGCCAAGCUUCGGCGCCUGCGCCGAUGUAGGUGUAGUGACUAGACGGCACCCACCUAAGGCGAACGAUAUGGUGAAGGCAUAGUCCAGGGAGCGGCGAAAGUCACACAAACCGG  0.00757
18. GUGCCUUGCGCCGGGAAACCACGCAAGGGAUGGUGUCAAAUUCGGCGAAACCUAAGCGCCCGCCCGGGCGUAUGGCAACGCGGAGCCAAGCUUCGGCGCCUGCGCCGAUGUAGGUGUAGUGACUAGACGGCACCCACCUAAGGCGAACGGUAUGGUGAAGGCAUAGUCUAGGGAGAGGCGAAAGUCACACAAACCGG  0.0076
19. GUGCCUUGCGCCGGGAAACCACGCAAGGGAUGGUGUCAAAUUCGGCGAAACCUAAGCGCCCGCCCGGGCGUAUGGCAACGCGGAGCCAAGCUUCGGCGCCUGCGCCGAUGUAGGUGUAGUGACUAGACGGCACCCACCUAAGGCGAACGGUAUGGUGAAGGCAUAGUCUAGGGAGUGGCGAAAGUCACACAAACCGG  0.00767
20. GUGCCUUGCGCCGGGAAACCACGCAAGGGAUGGUGUCAAAUUCGGCGAAACCUAAGCGCCCGCCCGGGCGUAUGGCAACGCGGAGCCAAGCUUCGGCGCCUGCGCCGAUGUAGGUGUAGUGACUAGACGGCACCCACCUAAGGCGAACGAUAUGGUGAAGGCAUAGUCCAGGGAGAGGCGAAAGUCACACAAACCGG  0.00769
21. GUGCCUUGCGCCGGGAAACCACGCAAGGGAUGGUGUCAAAUUCGGCGAAACCUAAGCGCCCGCCCGGGCGUAUGGCAACGCGGAGCCAAGCUUCGGCGCCUGCGCCGAUGUAGGUGUAGUGACUAGACGGCACCCACCUAAGGCGAACGAUAUGGUGAAGGCAUAGUCAAGGGAGAGGCGAAAGUCACACAAACCGG  0.00821
22. GUGCCUUGCGCCGGGAAACCACGCAAGGGAUGGUGUCAAAUUCGGCGAAACCUAAGCGCCCGCCCGGGCGUAUGGCAACGCGGAGCCAAGCUUCGGCGCCUGCGCCGAUGUAGGUGUAGUGACUAGACGGCACCCACCUAAGGCGAACGGUAUGGUGAAGGCAUAGUCAAGGGAGCGGCGAAAGUCACACAAACCGG  0.0086
23. GUGCCUUGCGCCGGGAAACCACGCAAGGGAUGGUGUCAAAUUCGGCGAAACCUAAGCGCCCGCCCGGGCGUAUGGCAACGCGGAGCCAAGCUUCGGCGCCUGCGCCGAUGUAGGUGUAGUGACUAGACGGCACCCACCUAAGGCGAACGGUAUGGUGAAGGCAUAGUCAAGGGAGUGGCGAAAGUCACACAAACCGG  0.00873
24. GUGCCUUGCGCCGGGAAACCACGCAAGGGAUGGUGUCAAAUUCGGCGAAACCUAAGCGCCCGCCCGGGCGUAUGGCAACGCGGAGCCAAGCUUCGGCGCCUGCGCCGAUGUAGGUGUAGUGACUAGACGGCACCCACCUAAGGCGAACGAUAUGGUGAAGGCAUAGUCGAGGGAGAGGCGAAAGUCACACAAACCGG  0.00878
25. GUGCCUUGCGCCGGGAAACCACGCAAGGGAUGGUGUCAAAUUCGGCGAAACCUAAGCGCCCGCCCGGGCGUAUGGCAACGCGGAGCCAAGCUUCGGCGCCUGCGCCGAUGUAGGUGUAGUGACUAGACGGCACCCACCUAAGGCGAACGGUAUGGUGAAGGCAUAGUCCAGGGAGUGGCGAAAGUCACACAAACCGG  0.00902
26. GUGCCUUGCGCCGGGAAACCACGCAAGGGAUGGUGUCAAAUUCGGCGAAACCUAAGCGCCCGCCCGGGCGUAUGGCAACGCGGAGCCAAGCUUCGGCGCCUGCGCCGAUGUAGGUGUAGUGACUAGACGGCACCCACCUAAGGCGAACGGUAUGGUGAAGGCAUAGUCGAGGGAGAGGCGAAAGUCACACAAACCGG  0.00963
27. GUGCCUUGCGCCGGGAAACCACGCAAGGGAUGGUGUCAAAUUCGGCGAAACCUAAGCGCCCGCCCGGGCGUAUGGCAACGCGGAGCCAAGCUUCGGCGCCUGCGCCGAUGUAGGUGUAGUGACUAGACGGCACCCACCUAAGGCGAACGAUAUGGUGAAGGCAUAGUCCAGGGAGUGGCGAAAGUCACACAAACCGG  0.0109
28. GUGCCUUGCGCCGGGAAACCACGCAAGGGAUGGUGUCAAAUUCGGCGAAACCUAAGCGCCCGCCCGGGCGUAUGGCAACGCGGAGCCAAGCUUCGGCGCCUGCGCCGAUGUAGGUGUAGUGACUAGACGGCACCCACCUAAGGCGAACGGUAUGGUGAAGGCAUAGUCAAGGGAGAGGCGAAAGUCACACAAACCGG  0.0114
29. GUGCCUUGCGCCGGGAAACCACGCAAGGGAUGGUGUCAAAUUCGGCGAAACCUAAGCGCCCGCCCGGGCGUAUGGCAACGCGGAGCCAAGCUUCGGCGCCUGCGCCGAUGUAGGUGUAGUGACUAGACGGCACCCACCUAAGGCCAACGCUAUGGUGAAGGCAUAGUCCAGGGAGCGGCGAAAGUCACACAAACCGG  0.0125
30. GUGCCUUGCGCCGGGAAACCACGCAAGGGAUGGUGUCAAAUUCGGCGAAACCUAAGCGCCCGCCCGGGCGUAUGGCAACGCGGAGCCAAGCUUCGGCGCCUGCGCCGAUGUAGGUGUAGUGACUAGACGGCACCCACCUAAGGCGAACGCUAUGGUGAAGGCAUAGUCCAGGGAGUGGCGAAAGUCACACAAACCGG  0.043
